Experimental data as given in the supplement of paper PMC9732359.
± gives the uncertainty stated by the source.

Test: protein stability index of a GFP-peptide fusion (yeast GPS) (PSI 1-4); higher = more stable; sorted into four equal gates, so the index is relative within each strain
Conditions: ubr1∆
In short: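 Yeast carrying a pooled library were grown to mid-log phase in leucine-free medium. Each library plasmid expresses Cherry and has a tiled 17-residue yeast protein peptide fused downstream of GFP. Cells were sorted into four equal gates by GFP/Cherry ratio, and plasmids from each gate were PCR-amplified, Illumina-sequenced and assigned to strains by barcode. Summing, across gates, the read frequency times the gate number gave each peptide's protein stability index.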
LPSPESLKTKLNSNIRA [SNF5] showed a protein stability index of 2.1 ± 0.035.
In the case of LPSWSLGKWYSKEDYET [ARP7], the protein stability index is reported as 1.09 ± 0.11.
Sequence LPTPTPTEMEPDLDTEC [SWI1] has a protein stability index of 2.94 ± 0.032.
With LPTRYTLDVEAFKSVVS [RPL27A] the protein stability index was 1.34 ± 0.031.
Work on LQAFGESESTTNVYSKD [RPB3] yielded a protein stability index of 1.72 ± 0.041.
For LQAQLDYLNAELGEFFV [FAS2], the protein stability index was 3.18 ± 0.16.
Sequence LQDLISVYGLDDISRQV [ROX3] has a protein stability index of 3.21 ± 0.051.
With LQDVIALSIADDASSAE [RPC53] the protein stability index was 2.81 ± 0.077.
LQEKNSGNLPLNELSAK [RPN13] showed a protein stability index of 3.17 ± 0.063.
With LQGDLTFTKKCLENARS [SIR4] the protein stability index was 2.96 ± 0.041.
LQHELMISIIKLVTNVV [YML103C/NUP188] showed a protein stability index of 1.57 ± 0.038.
LQKALTVKTNDELMVIY [RPN8] gave a protein stability index of 2.65 ± 0.061.
Sequence LQLNEAEEFVAGVSHGT [SMX3] has a protein stability index of 3.41 ± 0.11.
LQLTTNTEQGDSDELGG [SNM1] showed a protein stability index of 3.09 ± 0.24.
With LQPFYSQPTAAGGPDMT [DSN1] the protein stability index was 1.62 ± 0.039.
LRAHTDDSRNPDCKIKI [PRE2] showed a protein stability index of 2.77 ± 0.11.
Work on LRASFNKLSSILQNEHD [SRB4] yielded a protein stability index of 2.49 ± 0.053.
For LRDESLTVDNLSIAIVG [PRE5], the protein stability index was 2.93 ± 0.051.
In the case of LREHFKNTEEGKALVHH [QCR6], the protein stability index is reported as 3.09 ± 0.099.
In the case of LRLFNAPDSEYLCFILS [SNF2], the protein stability index is reported as 1.94 ± 0.031.
Work on LRLKLFLYEILSSLKSF [SRB8] yielded a protein stability index of 2.11 ± 0.085.
Work on LRLTDVTNSLSNEEKEK [GAL11] yielded a protein stability index of 3.3 ± 0.12.
For LRNNLNSLIEEINERSE [YCG1], the protein stability index was 3.01 ± 0.073.
For LRPGRIDRKVEFSLPDL [RPT1], the protein stability index was 3.18 ± 0.098.
Sequence LRRIITDLNQDSAAIIA [GRR1] has a protein stability index of 2.55 ± 0.053.
In the case of LRSIYHQFHDILEEKTD [NSL1], the protein stability index is reported as 2.04 ± 0.04.
LSAENIEERLVAIAEQD [SCL1] showed a protein stability index of 3.32 ± 0.066.
LSASWDKTLRLWDVATG [ASC1] gave a protein stability index of 3.41 ± 0.072.
For LSEIESLDEILLPANLL [SRP68], the protein stability index was 3.037 ± 0.027.
Sequence LSESDKKSKLISLYLLN [RPN12] has a protein stability index of 2.31 ± 0.063.
With LSFIQVRIDLGTIDKLQ [RPO31] the protein stability index was 2.67 ± 0.047.
With LSFVDIVLSKAASALDE [SIR4] the protein stability index was 2.21 ± 0.054.
Work on LSLDSDVKFPSNTTTQI [SMC3] yielded a protein stability index of 3.32 ± 0.18.
Work on LSLHENYPQDEINAVFN [POP1] yielded a protein stability index of 3 ± 0.059.
LSPSDQFAPAFLNTPNN [SSN2] gave a protein stability index of 2.44 ± 0.098.
LSSETGIKLALDPNLIT [SRB4] showed a protein stability index of 2.51 ± 0.034.
Sequence LSSGESNEIKVTNDLDT [SIR4] has a protein stability index of 2.52 ± 0.08.
Work on LSSIEASLKIKNATDLQ [SMC3] yielded a protein stability index of 2.4 ± 0.077.
Sequence LSTLRMEADPSLHPLFE [RPN9] has a protein stability index of 2.41 ± 0.044.
Work on LSVDDIRGAVGNSEAIP [RTT102] yielded a protein stability index of 3.41 ± 0.047.
With LTCLPVPPPPVRPSISF [RPO21] the protein stability index was 2.33 ± 0.026.
For LTFMTCNSLHIPQDFEN [ESC2], the protein stability index was 2.66 ± 0.04.
LTFQPQQQTNALNGIDI [GRR1] gave a protein stability index of 3.1 ± 0.056.
In the case of LTGEATANALPLPAVFS [RPL4A], the protein stability index is reported as 2.71 ± 0.038.
With LTHRLGGDTCSSDGALC [POP1] the protein stability index was 3.19 ± 0.054.
For LTIDDLGVASFHGTSTK [FAS2], the protein stability index was 3.01 ± 0.047.
With LTKTTVNISAVDNTTEQ [YCG1] the protein stability index was 3.24 ± 0.098.
Sequence LTKYKEMERIVKNLTKY [SRP68] has a protein stability index of 2.78 ± 0.041.
LTLRKAKAPSGLDQSRI [FAS1] showed a protein stability index of 3.13 ± 0.081.
In the case of LTLYLFQDYLTQQAVNL [IRR1], the protein stability index is reported as 2.17 ± 0.099.
For LTNDTFEKKLSIIKAKL [YML103C/NUP188], the protein stability index was 3.3 ± 0.19.
LTNILRMMGCVKKQKSA [FAS2] gave a protein stability index of 1.35 ± 0.066.
LTPNEIKELEHLHDAVF [SWP82] gave a protein stability index of 2.95 ± 0.052.
LTVAMYINSDSVNPAML [RPO31] gave a protein stability index of 2.68 ± 0.082.
Work on LVDILPPDSDSSISVMG [RPT3] yielded a protein stability index of 2.72 ± 0.055.
For LVDTPSNNTAATADTTH [NUT1], the protein stability index was 3.17 ± 0.082.
LVEAAKLLKIPKFISEA [YDL116W/NUP84] gave a protein stability index of 2.76 ± 0.042.
With LVEEKTPGLTFNAIDLA [RPC82] the protein stability index was 3.27 ± 0.086.
Work on LVIGIFKRDLLREKEDK [YJL039C/NUP192] yielded a protein stability index of 2.34 ± 0.1.
LVKALEDIMVHYDNTTR [RPO21] showed a protein stability index of 1.68 ± 0.072.
LVLLNGRLRNKSHKQTI [RPP1] gave a protein stability index of 2.97 ± 0.061.
With LVLYDAENDVIEATDLG [BRR2] the protein stability index was 3.24 ± 0.066.
Work on LVQLEPHLFVNGDLTVS [SSN2] yielded a protein stability index of 1.5 ± 0.16.
LVQLKKFSDLKFILQIL [YML103C/NUP188] gave a protein stability index of 1.44 ± 0.059.
LVSANNDNNSPHTPVTR [YLR018C/POM34] showed a protein stability index of 2.95 ± 0.12.
LVSMRYPEDKKTQQNEK [RPN3] gave a protein stability index of 3.12 ± 0.12.
LVSSYLNKSDLLDKYGK [YML103C/NUP188] gave a protein stability index of 2.89 ± 0.065.
Work on LVVRFTNKDIICQIISS [RPL5] yielded a protein stability index of 1.67 ± 0.051.
With LWDQDIAIAGTGQIEGL [COR1] the protein stability index was 2.98 ± 0.05.
LWINYIKELLNITKNLK [POP4] gave a protein stability index of 1.78 ± 0.054.
LWSGKQILSVAIPNGIH [RPO21] showed a protein stability index of 1.71 ± 0.087.
Work on LYDRPLKPDLNKITNQG [NAS6] yielded a protein stability index of 3.4 ± 0.073.
For LYEKDIVPSMTHLEIEP [RET1], the protein stability index was 2.85 ± 0.053.
In the case of LYGLNLTLRKAKAPSGL [FAS1], the protein stability index is reported as 2.42 ± 0.15.
In the case of LYKIFSYALSMEKDKLK [SNU114], the protein stability index is reported as 1.65 ± 0.049.
LYPDSSSFKKNLLKFIT [RPN3] showed a protein stability index of 1.25 ± 0.18.
Work on LYQTYHVLVGDLIKFSA [FAS1] yielded a protein stability index of 2.31 ± 0.035.
With LYSGLIIDEIITQMRVN [RPC82] the protein stability index was 1.58 ± 0.068.
LYTLVINDAGKAKKLIQ [RPL38] gave a protein stability index of 1.56 ± 0.13.
With MACNFQFPEIAYPGKLI [CSL4] the protein stability index was 2.62 ± 0.16.
In the case of MADLQKQENSSRFTNVS [YMR153W/NUP53], the protein stability index is reported as 3.31 ± 0.12.
In the case of MAGLMHFKKPDITVHGE [RRP45], the protein stability index is reported as 1.25 ± 0.092.
For MAGSQFENGNITGEDEV [RRP45], the protein stability index was 2.95 ± 0.09.
Work on MAIEIINDIRDDDIEKQ [YCG1] yielded a protein stability index of 3.27 ± 0.14.
MAKTLKDLDGWQVIITD [SIR3] gave a protein stability index of 2.71 ± 0.14.
MAKVHGSLARAGKVKSQ [RPS30A] showed a protein stability index of 2.44 ± 0.054.
MAPYLPGSRASSRFIKG [RPN2] gave a protein stability index of 2.53 ± 0.044.
Sequence MASNEVLVLRGTLEGHN [ASC1] has a protein stability index of 3.16 ± 0.25.
MCGVIVKQYNKKWPQFY [SIN4] gave a protein stability index of 1.74 ± 0.046.
In the case of MDKPLNFRILKSFTNDK [SRB5], the protein stability index is reported as 3.16 ± 0.036.
In the case of MENIKKSIDSKTPEEVE [ISW2], the protein stability index is reported as 3.23 ± 0.11.
In the case of MENILQRCKSNAISLQL [YIL149C/MLP2], the protein stability index is reported as 1.57 ± 0.046.
MESEEVPLTKRYQHLEK [PCI8] showed a protein stability index of 3.14 ± 0.065.
MEYLSGGEKTVAALALL [SMC1] gave a protein stability index of 2.3 ± 0.13.
MFKLGNFESPVLKELSR [YLR018C/POM34] showed a protein stability index of 2.66 ± 0.16.
MFLTRSEYDRGVSTFSP [PUP2] showed a protein stability index of 3.34 ± 0.11.
Sequence MFNPLHESYCLPMDTNL [YMR129W/POM152] has a protein stability index of 2.36 ± 0.056.
Sequence MFQSQSQLQPQPQPQPQ [YDL088C/ASM4] has a protein stability index of 2.99 ± 0.04.
Sequence MGDNSQLDFTEFDEQYG [SNF2] has a protein stability index of 3.14 ± 0.045.
Work on MGPLYQNFAEFMTKLLE [IRR1] yielded a protein stability index of 2.04 ± 0.15.
MHALKNRSEQNGQEQQG [RGR1] gave a protein stability index of 3.06 ± 0.21.
